# Assay results reported in patent US20050009745A1, “TSG101 as inhibitor of HIV production” (priority 2001, published 2005).
# Where no end group is shown, it is not given here.
# B1: SD5-59 (protein)
# chain: MAVSESQLKKMVSKYKYRDLTVRETVNVITLYKDLKPVLDSYVFNDGSSRELMNLTGTIPVPYRGNTYNIPICLWLLDTYPYNPPICFVKPTSSMTIKTGKHVDANGKIYLPYLHEWKHPQSDLLGLIQVMIVVFGDEPPVFSRPISASYPPYQATGPPNTSYMPGMPGGISPYPSGYPPNPSGYPGCPYPPGGPYPATTSSQYPSQPPVTTVGPSRDGTISEDTIRASLISAVSDKLRWRMKEEMDRAQAELNALKRTEEDLKKGHQKLEEMVTRLDQEVAEVDKNIELLKKKDEELSSALEKMENQSENNDIDEVIIPTAPLYKQILNLYAEENAIEDTIFYLGEGGVIDLDVFLKHVRLLSRKQFQLRALMQKARKTAGLSDLY
# modifications: left off: small tags and cut ends
# B2: pIND-h-Tsg101-FLAG: wild-type human Tsg101, FLAG-tagged, inducibly over-expressed from plasmid (protein)
# chain: MAVSESQLKKMVSKYKYRDLTVRETVNVITLYKDLKPVLDSYVFNDGSSRELMNLTGTIPVPYRGNTYNIPICLWLLDTYPYNPPICFVKPTSSMTIKTGKHVDANGKIYLPYLHEWKHPQSDLLGLIQVMIVVFGDEPPVFSRPISASYPPYQATGPPNTSYMPGMPGGISPYPSGYPPNPSGYPGCPYPPGGPYPATTSSQYPSQPPVTTVGPSRDGTISEDTIRASLISAVSDKLRWRMKEEMDRAQAELNALKRTEEDLKKGHQKLEEMVTRLDQEVAEVDKNIELLKKKDEELSSALEKMENQSENNDIDEVIIPTAPLYKQILNLYAEENAIEDTIFYLGEALRRGVIDLDVFLKHVRLLSRKQFQLRALMQKARKTAGLSDLY
# modifications: left off: small tags and cut ends
# notes: wild-type human Tsg101, FLAG-tagged, inducibly over-expressed from plasmid
# How the values were obtained:
# HIV-1 particles = assay: Release of HIV-1 virus-like particles from transfected COS-1 cells, Western blot with anti-CA; assay type: cell-based
# [1] = Solubility of the peptide; assay type: physicochemical; settings: precluded testing at higher concentrations
# [2] = target: GAL4 activation domain-Tsg101 fusion protein (wild-type human Tsg101) (yeast; human) (UniProt Q99816); assay: cell-based or functional assay
# [3] = target: GAL4 DNA-binding domain-p1-p6 fusion protein (yeast; HIV-1) (UniProt P04386); assay: cell-based or functional assay
# HIV-1 Gag = assay type: cell-based
molecule,measurement,setting,value
"CC(C)CC[C@@H](O)[C@](C)(O)[C@H]1CC[C@@]2(O)C3=CC(=O)[C@@H]4C[C@@H](O)[C@@H](O)C[C@]4(C)[C@H]3CC[C@]12C [pa, pronasterone, reference compound]",effect on virus particle release,HIV-1 particles,no inhibitory effect
ALQSRPEPTAPPEES,solubility of the peptide,[1],limited solubility
GAL4 DNA-binding domain-p1-p6 with both PTAPP motifs deleted (from UniProt P04386 1-147; P03347 435-512),β-galactosidase activity (yeast 2-hybrid),[2],< 0.3%
GAL4 DNA-binding domain-p1-p6 with the first PTAPP motif deleted (from UniProt P04386 1-147; P03347 435-512),β-galactosidase activity (yeast 2-hybrid) (% of wild-type),[2],50
GAL4 activation domain-Tsg101 Y113V (from UniProt P04386 768-881),"2-hybrid assay, percent of wild-type interaction (% of wild-type)",[3],33
GAL4 activation domain-Tsg101 Y110W (from UniProt P04386 768-881),"2-hybrid assay, percent of wild-type interaction (% of wild-type)",[3],31
GAL4 activation domain-Tsg101 with Ala for Thr67-Tyr68-Asn69 (from UniProt P04386 768-881),"2-hybrid assay, percent of wild-type interaction (% of wild-type)",[3],5
GAL4 DNA-binding domain-p1-p6 with the first PTAPP motif deleted and Ala for Pro7 in the second motif (from UniProt P04386 1-147; P03347 435-512),"enzyme activity (β-galactosidase, yeast 2-hybrid) (% of wild-type)",[2],25
GAL4 DNA-binding domain-p1-p6 with the (LXX)4 repeat motif deleted (from UniProt P04386 1-147; P03347 435-512),β-galactosidase activity (yeast 2-hybrid) (% of wild-type),[2],55
GAL4 DNA-binding domain-p1-p6 with the second PTAPP motif deleted (from UniProt P04386 1-147; P03347 435-512),β-galactosidase activity (yeast 2-hybrid) (% of wild-type),[2],25
B1,Gag processing in released particles,"HIV-1 particles; COS cells, wild-type gag, 1 and 5 μM pa",accumulation of particle-associated uncleaved Gag precursor
same,release of virus particles,"HIV-1 particles; COS cells, wild-type gag, increasing expression with 1 and 5 μM pa",permitted release of virus particles
same,viral protein in P1 fraction,HIV-1 Gag,no protein was found
same,viral protein in S1 fraction,HIV-1 Gag,detectable levels of viral protein
B2,release of immature particles containing GagΔp6,"HIV-1 particles; COS-1 cells, gagΔp6, Tsg101 overexpression, 0, 1, 5 μM pa",not significantly affected
same,"amount of mature CA in released virus, of the control (0 μM pa) level","HIV-1 particles; COS-1 cells, wild-type gag, 1 μM pa inducer",~60%
same,"amount of mature CA in released virus, of the control (0 μM pa) level","HIV-1 particles; COS-1 cells, wild-type gag, 5 μM pa inducer",~30%
same,viral protein in P1 fraction,HIV-1 Gag,no detectable viral protein
same,viral protein in S1 fraction,HIV-1 Gag,no detectable viral protein
